39 substances from US20140303356A1 can be followed below.

The target in experiment [1] is CH2-CH3 construct G4-L351K (human). In words: native MS, monomer-dimer equilibrium of CH2-CH3 fragment.
Experiment [2] deals with CH2-CH3 construct G4 (human). The experiment is described as above.
In experiment [3] the target is IgG1-7D8-K409A (human) [IgG part: P01857]. In words: cell-based or functional assay.
For experiment [4], the target named is IgG1-7D8-K409G (human) [IgG part: P01857]. The experiment can be described thus: cell-based or functional assay.
Experiment [5] deals with IgG1-7D8-K409H (human) [IgG part: P01857]. The experiment can be described thus: cell-based or functional assay.
For experiment [6], the target named is IgG1-7D8-K409R (human) [IgG part: P01857]. In words: cell-based or functional assay.
Experiment [7] has as its target CH2-CH3 construct G4-F405A (human). The experiment can be described thus: native MS, monomer-dimer equilibrium of CH2-CH3 fragment.
Experiment [8] addresses CH2-CH3 construct G1 (human). Described as above.
Experiment [9] concerns the target CH2-CH3 construct G4-R409A (human). The description is as above.
The target in experiment [10] is CH2-CH3 construct G1-T350I (human). The experiment is described as above.
For experiment [11], the target named is CH2-CH3 construct G4-R409T (human). Described as above.
For experiment [12], the target named is CH2-CH3 construct G4-R409W (human). The experiment is described as above.
For experiment [13], the target named is CH2-CH3 construct G4-E357T (human). The description is as above.
The target in experiment [14] is CD20 on Daudi and Raji cells (UniProt P11836).
Chain of CD20 on Daudi and Raji cells (P11836 whole entry, the tested form may be a part): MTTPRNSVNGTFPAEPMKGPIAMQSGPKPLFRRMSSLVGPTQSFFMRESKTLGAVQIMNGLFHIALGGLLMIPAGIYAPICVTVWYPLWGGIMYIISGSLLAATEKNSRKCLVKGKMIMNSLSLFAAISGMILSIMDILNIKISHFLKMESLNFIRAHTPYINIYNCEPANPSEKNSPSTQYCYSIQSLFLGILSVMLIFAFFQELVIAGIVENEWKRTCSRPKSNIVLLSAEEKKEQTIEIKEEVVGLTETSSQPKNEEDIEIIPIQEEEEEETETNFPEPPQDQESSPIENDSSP
Experiment [15] concerns the target CH2-CH3 construct G4-R409K (human). The experiment can be described thus: native MS, monomer-dimer equilibrium of CH2-CH3 fragment.
The target in experiment [16] is CH2-CH3 construct G4-R409L (human). The experiment is described as above.
Experiment [17] deals with CH2-CH3 construct G4-R409M (human). The description is as above.
In experiment [18] the target is CH2-CH3 construct G4-F405L (human). The description is as above.

Take CH2-CH3 construct G4-L351K: in [1], the Kd worked out at 740 nM and the fold-difference (against wild type CH2-CH3 fragment) was determined as 0.06 fold.

On to CH2-CH3 construct G4, for which, in experiment [2], the Kd came out at 48 nM and the fold-difference (against wild type CH2-CH3 fragment) was determined as 1 fold.

As to IgG1-2F8-L368W (antibody), the Bispecific binding (% relative to positive control) in [3] was 56%; in experiment [4] it was 56%; in [5], 60%; in [6], 41%.

IgG1-2F8-D399R (antibody): the Bispecific binding (% relative to positive control) is 47% in experiment [3], 45% in experiment [4], 52% in [5] and 38% in experiment [6]. For the same substance, the Fab-arm exchange compared to the positive control, 20° C., 200 min in [4] stood at 85%. The substance further displayed a Fab-arm exchange efficiency compared to the positive control, 15° C., 200 min in experiment [4] of 85%.

For IgG1-2F8-L368A (antibody), the Bispecific binding (% relative to positive control) is 33% in experiment [3], 33% in experiment [4], 37% in experiment [5] and 25% in experiment [6].

Take CH2-CH3 construct G4-F405A: in experiment [7], the Kd turned out to be 19000 nM and the fold-difference (against wild type CH2-CH3 fragment) was found to be 0.0025 fold.

Regarding CH2-CH3 construct G1, in experiment [8], the Kd is 3 nM and the fold-difference (against wild type CH2-CH3 fragment) was determined as 1 fold.

As to IgG1-2F8-F405W (antibody), the Bispecific binding (% relative to positive control) in experiment [3] was determined as 17%; in [4], 20%; in experiment [5], 18%; in experiment [6], 16%.

For the substance IgG1-2F8-D399Q (antibody), the Bispecific binding (% relative to positive control) in experiment [3], in [4], in [5] and in [6] was 0% each time.

In the case of IgG1-2F8-L368V (antibody), the Bispecific binding (% relative to positive control) worked out at 42% in experiment [3], 49% in [4], 51% in [5] and 33% in experiment [6].

As to IgG1-2F8-L368D (antibody), the Bispecific binding (% relative to positive control) in [3] amounted to 49%; in experiment [4], 50%; in experiment [5], 54%; in [6], 41%.

In the case of IgG1-2F8-F405T (antibody), the Bispecific binding (% relative to positive control) in experiment [3] is 35%; in [4], 47%; in experiment [5], 46%; in [6], 42%.

CH2-CH3 construct G4-R409A: in experiment [9], the Kd is 160 nM and the fold-difference (against wild type CH2-CH3 fragment) was 0.3 fold.

Consider CH2-CH3 construct G1-T350I, for which, in experiment [10], the Kd came to 7 nM and the fold-difference (against wild type CH2-CH3 fragment) was 0.4 fold.

CH2-CH3 construct G4-R409T: in experiment [11], the Kd was found to be 720 nM and the fold-difference (against wild type CH2-CH3 fragment) came to 0.07 fold.

Turning to IgG1-2F8-F405K (antibody), the Bispecific binding (% relative to positive control) was 29% in [3], 48% in experiment [4], 40% in [5] and 47% in experiment [6].

Turning to IgG1-2F8-L368E (antibody), the Bispecific binding (% relative to positive control) in experiment [3] was 32%; in experiment [4], 38%; in [5], 42%; in experiment [6], 37%.

On to IgG1-2F8-Y407L (antibody), for which the Bispecific binding (% relative to positive control) amounted to 44% in experiment [3], 41% in experiment [4], 49% in experiment [5] and 49% in [6].

In the case of CH2-CH3 construct G4-R409W, in experiment [12], the Kd is 34000 nM and the fold-difference (against wild type CH2-CH3 fragment) is 0.0014 fold.

Regarding CH2-CH3 construct G4-E357T, in experiment [13], the Kd turned out to be 41000 nM and the fold-difference (against wild type CH2-CH3 fragment) was determined as 0.0012 fold.

As for IgG1-2F8-L368S (antibody), the Bispecific binding (% relative to positive control) in [3] came out at 39%; in experiment [4], 45%; in experiment [5] it was 53%; in experiment [6], 37%.

Regarding IgG1-2F8-L368R (antibody), the Bispecific binding (% relative to positive control) in [3] worked out at 55%; in [4], 64%; in [5], 91%; in experiment [6], 52%. The same substance returned a Fab-arm exchange efficiency compared to the positive control, 15° C., 200 min in experiment [5] of 100%.

On to IgG1-2F8-F405S (antibody), for which the Bispecific binding (% relative to positive control) in experiment [3] was determined as 34%; in experiment [4] it was 51%; in [5], 39%; in experiment [6], 45%. Moreover, the Fab-arm exchange compared to the positive control, 20° C., 200 min in experiment [3] is 90%. Moreover, the Fab-arm exchange efficiency compared to the positive control, 15° C., 200 min in [3] is 65%.

For IgG1-2F8-D399K (antibody), the Bispecific binding (% relative to positive control) in experiment [3] was 40%; in [4], 43%; in [5], 46%; in experiment [6], 34%.

In the case of IgG1-2F8-L368G (antibody), the Bispecific binding (% relative to positive control) in experiment [3] came to 46%; in [4] it was 53%; in experiment [5] it was 53%; in [6], 44%.

For IgG1-2F8-Y407Q (antibody), the Bispecific binding (% relative to positive control) in experiment [3] is 4%; in [4], 9%; in experiment [5], 44%; in [6], 1%.

On to IgG1-2F8-L368T (antibody), for which the Bispecific binding (% relative to positive control) amounted to 42% in experiment [3], 51% in experiment [4], 56% in experiment [5] and 39% in [6].

In the case of IgG1-2F8-F405I (antibody), the Bispecific binding (% relative to positive control) in experiment [3] stood at 32%; in experiment [4], 49%; in experiment [5] it was 60%; in experiment [6], 39%.

Consider “IgG1-7D8-K409R (from UniProt P01857 1-330) (antibody)”, for which the EC50 (read off the curve) in experiment [14] worked out at 0.4 µg/mL.

IgG1-2F8-D399F (antibody): the Bispecific binding (% relative to positive control) came out at 13% in experiment [3], 15% in [4], 15% in experiment [5] and 14% in [6].

With IgG1-2F8-L368N (antibody), the Bispecific binding (% relative to positive control) turned out to be 47% in experiment [3], 52% in [4], 54% in experiment [5] and 43% in [6].

On to CH2-CH3 construct G4-R409K, for which, in experiment [15], the Kd is 8 nM and the fold-difference (against wild type CH2-CH3 fragment) was 6 fold.

Regarding IgG1-2F8-L368H (antibody), the Bispecific binding (% relative to positive control) in experiment [3] stood at 26%; in [4], 25%; in experiment [5], 29%; in experiment [6] it was 21%.

For the substance CH2-CH3 construct G4-R409L, in experiment [16], the Kd turned out to be 15 nM and the fold-difference (against wild type CH2-CH3 fragment) turned out to be 3.2 fold.

Take CH2-CH3 construct G4-R409M: in experiment [17], the Kd is 3 nM and the fold-difference (against wild type CH2-CH3 fragment) was determined as 16 fold.

Turning to IgG1-2F8-D399H (antibody), the Bispecific binding (% relative to positive control) was found to be 12% in experiment [3], 14% in experiment [4], 19% in [5] and 10% in experiment [6].

As for IgG1-2F8-Y407W (antibody), the Bispecific binding (% relative to positive control) in experiment [3] stood at 48%; in experiment [4] it was 53%; in experiment [5], 62%; in experiment [6], 47%.

In the case of IgG1-2F8-F405V (antibody), the Bispecific binding (% relative to positive control) was determined as 36% in [3], 46% in experiment [4], 43% in experiment [5] and 37% in experiment [6].

For the substance CH2-CH3 construct G4-F405L, in [18], the Kd was determined as 25000 nM and the fold-difference (against wild type CH2-CH3 fragment) amounted to 0.0019 fold.

As a reminder, the Kd is a measure of binding affinity in units of concentration. Higher therefore signals lower affinity. By EC50 (read off the curve) is commonly meant the concentration giving half of the maximal effect.
